Experimental data taken from article PMC5666114.

Biological target: Anbu-1 protein from Pseudomonas aeruginosa (Pa-Anbu), wild type (Pseudomonas aeruginosa PAO1)
Experiment: SEC-MALS; static light scattering after Superdex S200 10/300 GL; 100 µl protein at 0.5, 1 or 2 mg/ml; 30 mM MOPS/NaOH pH 7.2, 150 mM NaCl; three independent experiments

stoichiometry N: 12
Substance: Anbu-1 protein from Pseudomonas aeruginosa (Pa-Anbu), wild type (natural protein)
